Assay results: patent US20220340657A1 (L AND L BIO CO LTD NINGBO CHINA, published 2022)
“And” between values parts separate entries of the source, which are not always exact repeats. Identical values can stand only once.

Columns and labels:
bio-LAG3-mFc [1] = biological target: T1, bio-LAG3-mFc (human, UniProt P18627 23-450, biotin-labelled); assay: blocking ELISA, LAG-3 on Daudi cells
T1 construct: also called hLAG-3
T1 sequence (looked up): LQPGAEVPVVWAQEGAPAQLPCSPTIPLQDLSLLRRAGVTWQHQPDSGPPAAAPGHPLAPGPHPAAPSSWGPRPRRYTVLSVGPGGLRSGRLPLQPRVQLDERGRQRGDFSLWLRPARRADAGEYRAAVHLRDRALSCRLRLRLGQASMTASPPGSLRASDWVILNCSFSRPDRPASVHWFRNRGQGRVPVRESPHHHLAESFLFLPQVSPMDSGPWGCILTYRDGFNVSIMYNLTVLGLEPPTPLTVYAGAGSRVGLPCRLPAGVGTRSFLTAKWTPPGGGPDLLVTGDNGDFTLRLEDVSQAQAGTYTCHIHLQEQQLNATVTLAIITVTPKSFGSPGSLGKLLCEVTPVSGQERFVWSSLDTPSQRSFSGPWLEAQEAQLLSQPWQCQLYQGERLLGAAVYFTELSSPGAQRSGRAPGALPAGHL

bio-LAG3-mFc [2] = biological target: T1, bio-LAG3-mFc; assay: blocking of LAG3 binding to Daudi cells, same experiment
Method: The Daudi cell line (ATCC, CCL-213) was expanded and seeded into 96-well microplate at a density of 2×10⁵ cells/well, and then centrifuged at 1600 rpm for 10 min; thereafter the cells were fixed with 100 μl/well of a fixative solution for immunostaining (Shanghai Beyotime Biotechnology Co., Ltd., Cat. No.: P0098) for half an hour at room temperature. After washing with PBS (BasalMedia Biology, Cat. No.: B320) once, 5% milk was added with 230 μl per well, and the microplate was incubated for 2 hours at 37° C. for blocking, then was washed three times with PBST. […] The microplate was then incubated for 1 hour at 37° C. and washed 5 times with PBST. 50 μl/well of 1:1000 diluted streptavidin-HRP secondary antibody (GenScript, Cat. No.: M00091) was added to the microplate and incubated for 1 hour at 37° C. After washing the microplate 5 times with PBST, 50 μl/well TMB (Surmodic, Cat. No.: TTMB-1000-01) was added to the microplate for color development, and 50 μl/well 1M H₂SO₄ was added to stop the reaction. The microplate was then read by a microplate reader (MuitiskanGo Thermo, model 511919200), and the data were analyzed using GraphPad prism 5.

human LAG-3-his = biological target: T2, human LAG-3-his (human, UniProt P18627 23-422); assay: ELISA on coated human LAG-3, OD450 (Example 3, Example 13) [panel a]
T2 construct: range 23-422; also called hLAG-3-his; hLAG-3
T2 sequence: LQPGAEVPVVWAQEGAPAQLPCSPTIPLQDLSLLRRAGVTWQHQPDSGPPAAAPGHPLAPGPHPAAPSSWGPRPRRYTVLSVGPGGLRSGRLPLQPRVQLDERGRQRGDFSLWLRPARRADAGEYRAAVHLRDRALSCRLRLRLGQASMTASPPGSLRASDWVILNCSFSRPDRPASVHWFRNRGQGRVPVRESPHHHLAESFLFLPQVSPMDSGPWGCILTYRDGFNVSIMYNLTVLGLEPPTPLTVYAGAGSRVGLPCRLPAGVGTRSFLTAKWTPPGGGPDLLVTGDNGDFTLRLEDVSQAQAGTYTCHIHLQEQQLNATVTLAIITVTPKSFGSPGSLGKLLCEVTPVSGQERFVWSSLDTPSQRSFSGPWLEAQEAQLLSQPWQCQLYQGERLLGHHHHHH

fold stronger blocking activity than Ref (bio-LAG3-mFc [1]): ≥ 2 times
IC50 (bio-LAG3-mFc [2]): 9.78 nM and 28 nM
EC50 (read off the curve) (human LAG-3-his): ~0.3 nM
B1: humanized anti-human LAG-3 antibody Ab2317 (antibody, human IgG4 S228P, kappa, V domains shown)
VH: QVQLVQSGAEVKKPGASVKVSCKASGYTFTDYEMHWVKQAPGQGLEWIGGIDPETEGIAYNQKFRGRATLTADKSTSTAYMELRSLRSDDTAVYYCTNSNYYGGREAWFAYWGQGTLVTVSS
VL: DIQMTQSPSSLSASVGDRVTITCRASQDIGSSLNWYQQKPGKAPKRLIYATSSLDSGVPSRFSGSRSGSDFTLTISSLQPEDFATYYCLQYVTSPLTFGGGTKVEIKR
notes: LG2317 / LG2343, human kappa / hIgG4
